Data set [1] deals with the molecule itself. In words: crystal structure; hanging-drop vapour diffusion; segment 9.69 mg ml^-1 in water with 31 mM lithium hydroxide; reservoir 0.15 M ammonium acetate, 35% MPD, 0.1 M Bis-Tris pH 5.5.
Data set [2] concerns the molecule itself. Nature of the data set: X-ray fibre diffraction; mC-hnRNPA2-LCD hydrogel (~60 mg ml^-1, 4 °C) air-dried between two capillary glass rods; 100 K.

B1: hnRNPA2 mutant core segment GNYNVF (286-291, D290V) (peptide)
peptide: GNYNVF
notes: hexamer segment 286-291 of human hnRNPA2 LCD with the disease variant D290V (multisystem proteinopathy); numbers count on the 341-residue hnRNPA2 (isoform A2); also called mutant segment; disease-causing mutant core segment
B1: in data set [1], the binding result is reported as “binds”.

B2: mCherry-hnRNPA2-LCD fusion protein (domain or fragment, human, UniProt P22626-2 181-341, looked up)
chain: MQEVQSSRSGRGGNFGFGDSRGGGGNFGPGPGSNFRGGSDGYGSGRGFGDGYNGYGGGPGGGNFGGSPGYGGGRGGYGGGGPGYGNQGGGYGGGYDNYGGGNYGSGNYNDFGNYNQQPSNYGPMKSGNFGGSRNMGGPYGGGNYGPGGSGGSGGYGGRSRY
notes: hnRNPA2 C-terminal low-complexity domain (LCD), human, residues 181-341 of the 341-residue protein (161 residues); printed length 341 = isoform A2 of HNRNPA2B1; Only Gly263-Tyr319 is ordered in the fibril core; also called mC-hnRNPA2-LCD; mCh-hnRNPA2-LCD; source: E. coli BL21(DE3), purified (HisTrap HP column, in 2 M guanidine HCl), dialysed and concentrated; not shown: mCherry, N-terminal, kept
With B2, the binding result in data set [2] was “binds”.
